The record followed here is article PMC11062541.

Test in all cases: EMSA
Data set [1] relates to T1, SezA (Streptococcus suis serotype 5 strain HN105), ORF:21ec5bb3.
T1 sequence: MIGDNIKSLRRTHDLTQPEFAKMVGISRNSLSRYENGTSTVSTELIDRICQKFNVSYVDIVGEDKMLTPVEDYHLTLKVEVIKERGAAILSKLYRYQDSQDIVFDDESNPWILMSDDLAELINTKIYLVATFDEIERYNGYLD

Data set [2] concerns SezA (Streptococcus suis serotype 5 strain HN105).
Data set [3] relates to T2, AbiEi (Streptococcus suis serotype 5 strain HN105), ORF:22a13f51.
T2 sequence: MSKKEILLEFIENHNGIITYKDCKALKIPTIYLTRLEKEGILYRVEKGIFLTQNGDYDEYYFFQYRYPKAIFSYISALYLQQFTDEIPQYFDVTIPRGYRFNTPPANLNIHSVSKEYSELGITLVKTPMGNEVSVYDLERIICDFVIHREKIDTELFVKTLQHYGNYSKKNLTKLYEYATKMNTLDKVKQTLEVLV

Data set [4] relates to T3, AbiEiDel-AHTH internal_change (Streptococcus suis serotype 5 strain HN105), ORF:22a13f51.
T3 sequence: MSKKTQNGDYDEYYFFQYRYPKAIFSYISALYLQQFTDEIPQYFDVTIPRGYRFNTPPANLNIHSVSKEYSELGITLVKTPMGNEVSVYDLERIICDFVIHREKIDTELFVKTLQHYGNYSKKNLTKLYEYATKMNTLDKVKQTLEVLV

Data set [5] concerns AbiEi (Streptococcus suis serotype 5 strain HN105).

pKd: −log10 of the molar value. Read-outs that look alike come from different tables or passages of the source.

In general, pKd refers to the Kd on a negative log10 scale, so that one unit is a factor of ten. A low value points to a large Kd. “AGTACAGGACTGGATTCAATTTTATGCCAAAATTCCTGCCAAACTTCAAATTTATGAACTCAAACCCCTTGATACTGCACATTTAACAGGTTGTGCAATTGTTACTCTTAAATAATAGAGTTTCCAATCAAAATAAAAACCTATCACCTAATGTGGTAGGTTTTTTTTGTTCTATTGTTGCAAACGTTTTCGTTGTGGGGTATAATATAAAAAAT (double strand) [L sequence (attL)]” gave a pKd in data set [1] of 5.71.
In data set [2], L sequence (attL) showed a negative logarithm of the Kd (pKd) of 5.71.
In the case of “AGAAAGTGATGATTACATGTTTTGGTCATAAATAGTCCTTCTTTTCTTTTTTCTGTAGCAACAAACTGTCACTCTTTTCTCATCATAAAAAAGAAGGCTTGATTTTGTTATCACAATACATTAATGTAAAAGAAATATTGTAAAAGGAAGGAGTAAGT (double strand) [PAbiE-ΔIR1/2]”, the binding result in data set [3] (IR1 and IR2 deleted) was “no binding”.
Take “AGAAAGTGATGATTACATGTTTTGGTCATAAATAGTCCTTCTTTTCTTTTTTCTGTAGCAACAAACTGTCACTCTTTTCTCATCATAAAAAAGAAGGCTTGATTTTGTTATCACAATACATTAATGTAAAAGAAAATGTTGCTTTTGCACTACAAATATTGTAAAATTGTAGTATAAAAGCAACATTGGAAGGAGTAAGT (double strand) [AbiE promoter]”: the binding entry in data set [1] is listed as “no binding”; in data set [4], “no binding”; in data set [3], “binds”.
Take “AGATAAAGACCTCCTCATATTTGCTTTCATTATACCATATATTAGGTTTCTTCGATTGCTTAAACTCCTCTATTCGCTTCTCCAACTGCTCAGTATTCAGTTTATTTTTCGCTTCTTGGATTGACTTATCAAGAATTTGTTCCTCATCGGTTATAATGTCCC (double strand) [PSezAT-ΔIR1/2]”: the binding entry in data set [1] (IR1 and IR2 deleted) is listed as “no binding”.
“CCTACTATCCTTTCAACATGATATTTGTCTGACAATGTAAGGCTGCCTCACATTGTCAGTACGCTTCCTAAAGACTTCACTCTCTCCTTGTTCGGTCTTTGCGAGCTCAGATATTGTGTCCACAATATCCCCAGTAGAAAATCAACACTTGATTTTTTTAGGAATGATATTAGGATAATAGAGGTGATTTGGAAAAGGTATCACAAAACAAAAAGTAGGATATTTCTAACCTACTTTTCATTTCCTTATA (double strand) [T sequence (oriT)]”: in data set [4], the binding result is “no binding”. Further, in data set [3], the pKd was 6.82.
Substance T sequence (oriT) showed a pKd in data set [5] of 6.82.
“AGTACAGGACTGGATTCAATTTTATGCCAAAATTCCTGCCAAACTTCAAATTTATGAACTCAAACCCCTTGATACTGCACATTTAACAGGTTGTGCAATTTAGAGTTTCCAATCAAAATAAAAACCTATCACCTAATGTGGTAGGTTTTTTTTGTTCTATTGTTGCAAACGTTTTCGTTGTGGGGTATAATATAAAAAAT (double strand) [L-ΔattL]”: in data set [1] (attL deleted), the binding entry is “no binding”.
As for “ACTTACTCCTTCCTTTTACAATATTTGTAGTGCAAAAGCAACATTTTCTTTTACATTAATGTATTGTGATAACAAAATCAAGCCTTCTTTTTTATGATGAGAAAAGAGTGACAGTTTGTTGCTACAGAAAAAAGAAAAGAAGGACTATTTATGACCAAAACATGTAATCATCACTTTCT (double strand) [PAbiE-ΔIR1]”, the binding result in data set [3] (IR1 deleted) is “binds”.
“GGGACATTATAACCGATGAGGAACAAATTCTTGATAAGTCAATCCAAGAAGCGAAAAATAAACTGAATACTGAGCAGTTGGAGAAGCGAATAGAGGAGTTTAAGCAATCGAAGAAACCTAAAAACGGATAATGCACCAAATATGGTGCGTTATCCGTTTTTTATGGTATAATGAAAGCAAATATGAGGAGGTCTTTATCT (double strand) [SezAT promoter]”: the binding result in data set [1] and in data set [3] was “binds” in each case.
As for “AGAAAGTGATGATTACATGTTTTGGTCATAAATAGTCCTTCTTTTCTTTTTTCTGTAGCAACAAACTGTCACTCTTTTCTCATCATAAAAAAGAAGGCTTGATTTTGTTATCACAATACATTAATGTAAAAGAAATATTGTAAAATTGTAGTATAAAAGCAACATTGGAAGGAGTAAGT (double strand) [PAbiE-ΔIR2]”, the binding entry in data set [3] (IR2 deleted) is given as “binds”.
Take “TATAAGGAAATGAAAAGTAGGTTAGAAATATCCTACTTTTTGTTTTGTGATACCTTTTCCAAATCACCTCTATTATCCTAATATCATTCCTAAAAAAATCAAGTGTTGATTTTCTACTGCGAACAAGGAGAGAGTGAAGTCTTTAGGAAGCGTACTGACAATGTGAGGCAGCCTTACATTGTCAGACAAATATCATGTTGAAAGGATAGTAGG (double strand) [T-ΔoriT]”: the binding entry in data set [3] (oriT deleted) was “no binding”.
